B5: GST-tagged RanBP2 fragment (BICD2 binding domain, aa 2148–2240), on glutathione Sepharose (domain or fragment, human, UniProt P49792 2148-2240, looked up)
chain: DIPLQTPHKLVDTGRAAKLIQRAEEMKSGLKDFKTFLTNDQTKVTEEENKGSGTGAAGASDTTIKPNPENTGPTLEWDNYDLREDALDDSVSS
notes: GST fusion from the pGEX-6P-1 vector; also called GST-RanBP2; BBD; source: E. coli, purified on glutathione Sepharose, not eluted

Assay [1] deals with GST-His6-BICD2-CT (aa 630–820) E770G (mouse) (UniProt Q921C5). The assay is described as follows: pull-down; GST-His6-BICD2-CT WT or mutant on glutathione magnetic beads, incubated 3 hrs at 4°C with untransfected or GFP-Nesprin-2 expressing HeLaM lysate (RIPA buffer); immunoblot with anti-RanBP2, anti-GFP and anti-GST, signal ratio normalised to wildtype. Background: In western blotting, separated proteins are transferred to a membrane and probed.

The target in assay [2] is Purified Nesprin-2 fragment (N2G SR 52–56), used in size exclusion chromatography (mouse) (UniProt Q6ZWQ0). Description: SEC; pairwise mixtures, Nesprin-2 or RanBP2 with BICD2-CC3 WT or mutant at 1:2; 1.3 mg Nesprin-2, 0.2 mg RanBP2, 0.4 mg BICD2-CC3; Superdex 200 Increase 10/300 GL; 20 mM HEPES pH 7.5, 150 mM NaCl, 0.5 mM TCEP; bands quantified (Fig 6C-6G, S3, S6).
The target of assay [3] is GST-tagged Nesprin-2 fragment (N2G SR 52–56), on glutathione Sepharose (mouse) (UniProt Q6ZWQ0). The assay is described as follows: pull-down; GST-RanBP2 or GST-Nesprin-2 held on glutathione Sepharose (not eluted), purified His6-tagged BICD2 fragment added to the column, washed, eluted; Coomassie-stained SDS-PAGE, bands quantified (3 sets).
The target of assay [4] is B5. The assay is described as above. As to conditions: both partners purified.
Assay [5] concerns the target T1, RanBP2 fragment (aa 2148–2240), GST cleaved (human, UniProt P49792 2148-2240).
T1 construct: expressed as GST fusion from the pGEX-6P-1 vector; also called Hs RanBP2 (aa 2148–2240); BBD
The assay is described as follows: SEC; competition: Nesprin-2, RanBP2 and BICD2-CC3 WT or mutant mixed at 1:1:2 molar ratio; Superdex 200 Increase 10/300 GL; 20 mM HEPES pH 7.5, 150 mM NaCl, 0.5 mM TCEP (Fig 6L, 6M, S3I, S3J). As to conditions: both partners purified.

For assay [6], the target named is T1, RanBP2 fragment (aa 2148–2240), GST …. Description: SEC; pairwise mixtures, equimolar; Superdex 200 Increase 10/300 GL; 20 mM HEPES pH 7.5, 150 mM NaCl, 0.5 mM TCEP, 1 mM MgCl2; 1.3 mg Nesprin-2, 0.2 mg RanBP2, 0.2 mg BICD2-CC3; fractions on SDS-PAGE (Fig 2D, 2E). As to conditions: both partners purified. (In general: Size exclusion chromatography separates by hydrodynamic size, large species first.)

Assay [7] deals with GFP tagged Nesprin-2 fragment (GFP-N2G SR), Q6ZWQ0. Description: GST pull-down with immunoblot quantification. As to conditions: chain shown with the change; GFP-Nesprin-2 expressing HeLaM cell lysate; n = 3; parent: est. 1.0; read off a plot.
A further assay has as its target T2, BICD2 aa 630–800 (mouse, UniProt Q921C5-1 630-800).
T2 construct: Bicd2 (Bicaudal D2), mouse, aa 630–800, contains the entire predicted CC3 domain; cloned into pet28a (NdeI, XhoI); also called Ms BICD2 aa 630–800
T2 sequence (looked up): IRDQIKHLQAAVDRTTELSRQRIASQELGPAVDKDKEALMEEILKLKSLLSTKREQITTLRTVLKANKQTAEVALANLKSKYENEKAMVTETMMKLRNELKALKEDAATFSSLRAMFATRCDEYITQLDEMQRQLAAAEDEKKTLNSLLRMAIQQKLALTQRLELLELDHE
Description: pull-down; GST-RanBP2 or GST-Nesprin-2 held on glutathione Sepharose (not eluted), purified His6-tagged BICD2 fragment added to the column, washed, eluted; Coomassie-stained SDS-PAGE, bands quantified (3 sets). Particulars: both partners purified.

Take “GFP tagged Nesprin-2 fragment (GFP-N2G SR) (from UniProt Q6ZWQ0 1-6874) (domain or fragment)”: the fold change in GFP-Nesprin-2 binding against wildtype BICD2-CT in assay [1] stood at 6 fold. “BICD2-CC3 (aa 711–800) F739I/R743C (from UniProt Q921C5-1 711-800) (domain or fragment)”: the percent of BICD2-CC3 that co-elutes with Nesprin-2 in assay [2] turned out to be 94%.

For the molecule “BICD2-CC3 (aa 711–800), His6-tagged (from UniProt Q921C5-1 711-800) (domain or fragment)”, the percent of BICD2-CC3 that co-elutes with Nesprin-2 in assay [2] was 23%.

In the case of “BICD2 aa 750–800 (from UniProt Q921C5-1 750-800) (domain or fragment)”, the amount of bound molecules compared to the longer fragments (aa 630–800 and 711–800) in assay [3] is 73%.

B1: BICD2-CC3 (aa 711–800), His6-tagged (domain or fragment, mouse, UniProt Q921C5-1 711-800, looked up)
chain: YENEKAMVTETMMKLRNELKALKEDAATFSSLRAMFATRCDEYITQLDEMQRQLAAAEDEKKTLNSLLRMAIQQKLALTQRLELLELDHE
notes: also called Ms BICD2-CC3; source: E. coli LOBSTR-BL21(DE3)-RIL, purified (Ni-NTA)
B1: the binding result in assay [4] and in assay [5] was “binds” throughout.

B2: BICD2-CC3 (residues 711–800), His6 tag removed (domain or fragment, mouse, UniProt Q921C5-1 711-800, looked up)
chain: YENEKAMVTETMMKLRNELKALKEDAATFSSLRAMFATRCDEYITQLDEMQRQLAAAEDEKKTLNSLLRMAIQQKLALTQRLELLELDHE
B2: in assay [6], the binding result is “binds”.

B3: GST-His6-BICD2-CT (aa 630–820) wildtype, Q921C5-1 T699M (protein)
chain: IRDQIKHLQAAVDRTTELSRQRIASQELGPAVDKDKEALMEEILKLKSLLSTKREQITTLRTVLKANKQMAEVALANLKSKYENEKAMVTETMMKLRNELKALKEDAATFSSLRAMFATRCDEYITQLDEMQRQLAAAEDEKKTLNSLLRMAIQQKLALTQRLELLELDHEQTRRGRSKAASKAKPASPSL
Turning to B3, the ratio to parent in assay [7] amounted to 0.53.

B4: GST-His6-BICD2-CT (aa 630–820) wildtype, Q921C5-1 L679R (protein)
chain: IRDQIKHLQAAVDRTTELSRQRIASQELGPAVDKDKEALMEEILKLKSLRSTKREQITTLRTVLKANKQTAEVALANLKSKYENEKAMVTETMMKLRNELKALKEDAATFSSLRAMFATRCDEYITQLDEMQRQLAAAEDEKKTLNSLLRMAIQQKLALTQRLELLELDHEQTRRGRSKAASKAKPASPSL
For B4, in assay [7], the ratio to parent is 2.7. As to B5, in the assay with BICD2 aa 630–800, the binding result is “binds”.

(Values after publication PMC10022797, “Role of Nesprin-2 and RanBP2 in BICD2-associated brain developmental disorders” (PLOS Genetics, 2023).)
